Laboratory results published in patent publication US12570725 (DUKE UNIVERSITY, dated 2026).

How the values were obtained:
Experiment in all cases: cell-based or functional assay
[1] = target: Dengue virus serotype 3 virion (Dengue virus serotype 3)
[2] = target: Dengue virus serotype 4 virion (Dengue virus serotype 4)
[3] = target: Dengue virus serotype 2 virion (Dengue virus serotype 2)
[4] = target: Dengue virus serotype 1 virion (Dengue virus serotype 1)

Measured: FRNT50

B1: 119-1-D7 (antibody, V domains shown)
VH: EVQLVESGGGLVKPGGSLRLSCVASGFTFNIYNMNWVRQAPGRGLEWVSSISLSSSYIDYADSVEGRFTISRDNAKNSLSLQMNSLKAEDTAVYYCARGRRGEWLVLHDAFDLWGQGTLVTVSS
VL: EIVLTQSPDTLSLSPGEGATLSCRASRTITSTYLAWYQQKPGQAPRLLMYSVSTRAPGIPDRFSGSGSGTDFTLTISRLEPEDFAVYFCQQYGSTPPYTFGQGTKLEIR
> 5 µg/mL: all assays above
